8 molecules from patent publication US20240209106A1 (BEIGENE SWITZERLAND, published 2024) can be followed below.

Broadly, the Kd is the concentration at which binding is half-saturated. A higher Kd goes with weaker binding.

Sequences and labels used below:
B1: Format A - BGA-3285 (bispecific antibody, human IgG1, kappa)
heavy: QVQLVQSGAEVKKPGASVKVSCKASGYIFTSYYLHWVRQAPGQGLEWIGYINPQTGKTSYAQKFQGRVTMTRDTSTSTVYMELSSLRSEDTAVYYCAREYGNYNYPLDYWGQGTLVTVSSASTKGPSVFPLAPSSKSTSGGTAALGCLVKDYFPEPVTVSWNSGALTSGVHTFPAVLQSSGLYSLSSVVTVPSSSLGTQTYICNVNHKPSNTKVDKKVEPKSCDKTHTCPPCPAPPAAGPSVFLFPPKPKDTLMISRTPEVTCVVVDVSHEDPEVKFNWYVDGVEVHNAKTKPREEQYNSTYRVVSVLTVLHQDWLNGKEYKCKVSNKALAAPIEKTISKAKGQPREPQVYTLPPSREEMTKNQVSLTCLVKGFYPSDIAVEWESNGQPENNYKTTPPVLDSDGSFFLYSKLTVDKSRWQQGNVFSCSVMHEALHNHYTQKSLSLSPGKGGGGSEVQLLESGGGLVQPGGSLRLSCAASGFTISAEDVGWVRQAPGKGLEWVSAILDFGGSTYYAESVKGRFTISRDNAKNTLYLQMSSLRAEDTAVYYCARVVYHAGGGVTFDTRGQGTQVTVSS
light: DIQMTQSPSSLSASVGDRVTITCRASENQYGYLAWYQQKPGKVPKLLIYNYKNLVEGVPSRFSGSGSGTDFTLTISSLQPEDVATYYCQHHLGTPYTFGQGTKVEIKRTVAAPSVFIFPPSDEQLKSGTASVVCLLNNFYPREAKVQWKVDNALQSGNSQESVTEQDSKDSTYSLSSTLTLSKADYEKHKVYACEVTHQGLSSPVTKSFNRGEC
notes: Light chain by the description of Format A
B2: Format A - BGA-7746 (bispecific antibody, human IgG1, kappa)
heavy: QVQLVQSGAEVKKPGASVKVSCKASGYIFTSYYLHWVRQAPGQGLEWIGYINPQTGKTSYAQKFQGRVTMTRDTSTSTVYMELSSLRSEDTAVYYCAREYGNYNYPLDYWGQGTLVTVSSASTKGPSVFPLAPSSKSTSGGTAALGCLVKDYFPEPVTVSWNSGALTSGVHTFPAVLQSSGLYSLSSVVTVPSSSLGTQTYICNVNHKPSNTKVDKKVEPKSCDKTHTCPPCPAPPAAGPSVFLFPPKPKDTLMISRTPEVTCVVVDVSHEDPEVKFNWYVDGVEVHNAKTKPREEQYNSTYRVVSVLTVLHQDWLNGKEYKCKVSNKALAAPIEKTISKAKGQPREPQVYTLPPSREEMTKNQVSLTCLVKGFYPSDIAVEWESNGQPENNYKTTPPVLDSDGSFFLYSKLTVDKSRWQQGNVFSCSVMHEALHNHYTQKSLSLSPGKGGGGSEVQLLESGGGLVQPGGSLRLSCAASGFTVSAEDVGWVRQAPGKGLEWVSAILDFGGSTYYAESVKGRFTISRDNAKNTLYLQMSSLRAEDTAVYYCARVVYHAGGGVTFDTRGQGTQVTVSS
light: DIQMTQSPSSLSASVGDRVTITCRASENQYGYLAWYQQKPGKVPKLLIYNYKNLVEGVPSRFSGSGSGTDFTLTISSLQPEDVATYYCQHHLGTPYTFGQGTKVEIKRTVAAPSVFIFPPSDEQLKSGTASVVCLLNNFYPREAKVQWKVDNALQSGNSQESVTEQDSKDSTYSLSSTLTLSKADYEKHKVYACEVTHQGLSSPVTKSFNRGEC
notes: as for B1
B3: Format A - BGA-9468 (bispecific antibody, human IgG1, kappa)
heavy: QVQLVQSGAEVKKPGASVKVSCKASGYIFTSYYLHWVRQAPGQGLEWIGYINPQTGKTSYAQKFQGRVTMTRDTSTSTVYMELSSLRSEDTAVYYCAREYGNYNYPLDYWGQGTLVTVSSASTKGPSVFPLAPSSKSTSGGTAALGCLVKDYFPEPVTVSWNSGALTSGVHTFPAVLQSSGLYSLSSVVTVPSSSLGTQTYICNVNHKPSNTKVDKKVEPKSCDKTHTCPPCPAPPAAGPSVFLFPPKPKDTLMISRTPEVTCVVVDVSHEDPEVKFNWYVDGVEVHNAKTKPREEQYNSTYRVVSVLTVLHQDWLNGKEYKCKVSNKALAAPIEKTISKAKGQPREPQVYTLPPSREEMTKNQVSLTCLVKGFYPSDIAVEWESNGQPENNYKTTPPVLDSDGSFFLYSKLTVDKSRWQQGNVFSCSVMHEALHNHYTQKSLSLSPGKGGGGSEVQLLESGGGLVQPGGSLRLSCAASGFTVSAEDVGWVRQAPGKGLEWVSAILDSGGSTYYAESVKGRFTISRDNAKNTLYLQMSSLRAEDTAVYYCARVVYHSGGGVTFDLRGQGTQVTVSS
light: DIQMTQSPSSLSASVGDRVTITCRASENQYGYLAWYQQKPGKVPKLLIYNYKNLVEGVPSRFSGSGSGTDFTLTISSLQPEDVATYYCQHHLGTPYTFGQGTKVEIKRTVAAPSVFIFPPSDEQLKSGTASVVCLLNNFYPREAKVQWKVDNALQSGNSQESVTEQDSKDSTYSLSSTLTLSKADYEKHKVYACEVTHQGLSSPVTKSFNRGEC
notes: as for B1
B4: Format A - BGA-8425 (bispecific antibody, human IgG1, kappa)
heavy: QVQLVQSGAEVKKPGASVKVSCKASGYIFTSYYLHWVRQAPGQGLEWIGYINPQTGKTSYAQKFQGRVTMTRDTSTSTVYMELSSLRSEDTAVYYCAREYGNYNYPLDYWGQGTLVTVSSASTKGPSVFPLAPSSKSTSGGTAALGCLVKDYFPEPVTVSWNSGALTSGVHTFPAVLQSSGLYSLSSVVTVPSSSLGTQTYICNVNHKPSNTKVDKKVEPKSCDKTHTCPPCPAPPAAGPSVFLFPPKPKDTLMISRTPEVTCVVVDVSHEDPEVKFNWYVDGVEVHNAKTKPREEQYNSTYRVVSVLTVLHQDWLNGKEYKCKVSNKALAAPIEKTISKAKGQPREPQVYTLPPSREEMTKNQVSLTCLVKGFYPSDIAVEWESNGQPENNYKTTPPVLDSDGSFFLYSKLTVDKSRWQQGNVFSCSVMHEALHNHYTQKSLSLSPGKGGGGSEVQLLESGGGLVQPGGSLRLSCAASGFTLSAEDVGWVRQAPGKGLEWVSAILDSGGSTYYAESVKGRFTISRDNAKNTLYLQMSSLRAEDTAVYYCARVVYHAGGGVTYDYRGQGTQVTVSS
light: DIQMTQSPSSLSASVGDRVTITCRASENQYGYLAWYQQKPGKVPKLLIYNYKNLVEGVPSRFSGSGSGTDFTLTISSLQPEDVATYYCQHHLGTPYTFGQGTKVEIKRTVAAPSVFIFPPSDEQLKSGTASVVCLLNNFYPREAKVQWKVDNALQSGNSQESVTEQDSKDSTYSLSSTLTLSKADYEKHKVYACEVTHQGLSSPVTKSFNRGEC
notes: as for B1
B5: Format A - BGA-3953 (bispecific antibody, human IgG1, kappa)
heavy: QVQLVQSGAEVKKPGASVKVSCKASGYIFTSYYLHWVRQAPGQGLEWIGYINPQTGKTSYAQKFQGRVTMTRDTSTSTVYMELSSLRSEDTAVYYCAREYGNYNYPLDYWGQGTLVTVSSASTKGPSVFPLAPSSKSTSGGTAALGCLVKDYFPEPVTVSWNSGALTSGVHTFPAVLQSSGLYSLSSVVTVPSSSLGTQTYICNVNHKPSNTKVDKKVEPKSCDKTHTCPPCPAPPAAGPSVFLFPPKPKDTLMISRTPEVTCVVVDVSHEDPEVKFNWYVDGVEVHNAKTKPREEQYNSTYRVVSVLTVLHQDWLNGKEYKCKVSNKALAAPIEKTISKAKGQPREPQVYTLPPSREEMTKNQVSLTCLVKGFYPSDIAVEWESNGQPENNYKTTPPVLDSDGSFFLYSKLTVDKSRWQQGNVFSCSVMHEALHNHYTQKSLSLSPGKGGGGSEVQLLESGGGLVQPGGSLRLSCAASGFTVSAEDVGWVRQAPGKGLEWVSAILDSGGSTYYAESVKGRFTISRDNAKNTLYLQMSSLRAEDTAVYYCARIVYHAGGGVTFDTRGQGTQVTVSS
light: DIQMTQSPSSLSASVGDRVTITCRASENQYGYLAWYQQKPGKVPKLLIYNYKNLVEGVPSRFSGSGSGTDFTLTISSLQPEDVATYYCQHHLGTPYTFGQGTKVEIKRTVAAPSVFIFPPSDEQLKSGTASVVCLLNNFYPREAKVQWKVDNALQSGNSQESVTEQDSKDSTYSLSSTLTLSKADYEKHKVYACEVTHQGLSSPVTKSFNRGEC
notes: as for B1
B6: Format A - BGA-5385 (bispecific antibody, human IgG1, kappa)
heavy: QVQLVQSGAEVKKPGASVKVSCKASGYIFTSYYLHWVRQAPGQGLEWIGYINPQTGKTSYAQKFQGRVTMTRDTSTSTVYMELSSLRSEDTAVYYCAREYGNYNYPLDYWGQGTLVTVSSASTKGPSVFPLAPSSKSTSGGTAALGCLVKDYFPEPVTVSWNSGALTSGVHTFPAVLQSSGLYSLSSVVTVPSSSLGTQTYICNVNHKPSNTKVDKKVEPKSCDKTHTCPPCPAPPAAGPSVFLFPPKPKDTLMISRTPEVTCVVVDVSHEDPEVKFNWYVDGVEVHNAKTKPREEQYNSTYRVVSVLTVLHQDWLNGKEYKCKVSNKALAAPIEKTISKAKGQPREPQVYTLPPSREEMTKNQVSLTCLVKGFYPSDIAVEWESNGQPENNYKTTPPVLDSDGSFFLYSKLTVDKSRWQQGNVFSCSVMHEALHNHYTQKSLSLSPGKGGGGSEVQLLESGGGLVQPGGSLRLSCAASGFTLSAEDVGWVRQAPGKGLEWVSAILDHGGSTYYAESVKGRFTISRDNAKNTLYLQMSSLRAEDTAVYYCARVIYHAGGGVTFDTRGQGTQVTVSS
light: DIQMTQSPSSLSASVGDRVTITCRASENQYGYLAWYQQKPGKVPKLLIYNYKNLVEGVPSRFSGSGSGTDFTLTISSLQPEDVATYYCQHHLGTPYTFGQGTKVEIKRTVAAPSVFIFPPSDEQLKSGTASVVCLLNNFYPREAKVQWKVDNALQSGNSQESVTEQDSKDSTYSLSSTLTLSKADYEKHKVYACEVTHQGLSSPVTKSFNRGEC
notes: as for B1
B7: BE-740 (A-IgG1-BGA-5623) (bispecific antibody)
heavy: not shown
light: DIQMTQSPSSLSASVGDRVTITCRASENQYGYLAWYQQKPGKVPKLLIYNYKNLVEGVPSRFSGSGSGTDFTLTISSLQPEDVATYYCQHHLGTPYTFGQGTKVEIKRTVAAPSVFIFPPSDEQLKSGTASVVCLLNNFYPREAKVQWKVDNALQSGNSQESVTEQDSKDSTYSLSSTLTLSKADYEKHKVYACEVTHQGLSSPVTKSFNRGEC
B8: BE-718 (A-BGA-5623-BGA-5623) (bispecific antibody, human IgG1, kappa)
heavy: QVQLVQSGAEVKKPGASVKVSCKASGYIFTSYYLHWVRQAPGQGLEWIGYINPQTGKTSYAQKFQGRVTMTRDTSTSTVYMELSSLRSEDTAVYYCAREYGNYNYPLDYWGQGTLVTVSSASTKGPSVFPLAPSSKSTSGGTAALGCLVKDYFPEPVTVSWNSGALTSGVHTFPAVLQSSGLYSLSSVVTVPSSSLGTQTYICNVNHKPSNTKVDKKVEPKSCDKTHTCPPCPAPPAAGPSVFLFPPKPKDTLMISRTPEVTCVVVDVSHEDPEVKFNWYVDGVEVHNAKTKPREEQYNSTYRVVSVLTVLHQDWLNGKEYKCKVSNKALAAPIEKTISKAKGQPREPQVYTLPPSREEMTKNQVSLTCLVKGFYPSDIAVEWESNGQPENNYKTTPPVLDSDGSFFLYSKLTVDKSRWQQGNVFSCSVMHEALHNHYTQKSLSLSPGKGGGGSEVQLLESGGGLVQPGGSLRLSCAASGFTVSAEDVGWVRQAPGKGLEWVSAILDKGGSTYYAESVKGRFTISRDNAKNTLYLQMSSLRAEDTAVYYCARIVYHAGGGVTFDTRGQGTQVTVSSGGGGSEVQLLESGGGLVQPGGSLRLSCAASGFTVSAEDVGWVRQAPGKGLEWVSAILDKGGSTYYAESVKGRFTISRDNAKNTLYLQMSSLRAEDTAVYYCARIVYHAGGGVTFDTRGQGTQVTVSS
light: DIQMTQSPSSLSASVGDRVTITCRASENQYGYLAWYQQKPGKVPKLLIYNYKNLVEGVPSRFSGSGSGTDFTLTISSLQPEDVATYYCQHHLGTPYTFGQGTKVEIKRTVAAPSVFIFPPSDEQLKSGTASVVCLLNNFYPREAKVQWKVDNALQSGNSQESVTEQDSKDSTYSLSSTLTLSKADYEKHKVYACEVTHQGLSSPVTKSFNRGEC

In one test the target is human CD137 ECD-mIgG2a (human). Briefly: SPR, multispecific antibody captured on anti-human IgG Fc chip, human CD137 ECD-mIgG2a flowed over. A general note: Surface plasmon resonance follows binding to a sensor surface in real time, without labels.
Chain of human CD137 ECD-mIgG2a (human) (chain, as listed by the source limits assumed): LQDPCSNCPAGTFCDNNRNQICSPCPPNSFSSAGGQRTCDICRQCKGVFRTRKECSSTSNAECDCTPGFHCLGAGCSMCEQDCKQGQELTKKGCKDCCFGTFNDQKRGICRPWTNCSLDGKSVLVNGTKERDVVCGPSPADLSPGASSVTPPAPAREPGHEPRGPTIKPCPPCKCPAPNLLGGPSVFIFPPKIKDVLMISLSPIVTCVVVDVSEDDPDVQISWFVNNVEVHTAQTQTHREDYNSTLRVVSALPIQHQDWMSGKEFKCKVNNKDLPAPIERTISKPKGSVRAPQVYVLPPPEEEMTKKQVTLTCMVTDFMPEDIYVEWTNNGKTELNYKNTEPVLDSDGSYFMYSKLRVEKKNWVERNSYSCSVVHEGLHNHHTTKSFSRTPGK
Method: Briefly, anti-human IgG (Fc) antibody was immobilized on an activated CM5 biosensor chip (Cat.: BR100839, GE Life Sciences). Anti-huCD137 monoclonal antibodies or multispecific antibodies were flown through the chip surface and captured by anti-human IgG (Fc) antibody. […] The equilibrium dissociation constant (KD)) was calculated as the ratio koff/kₒₙ.
B1 yielded a Kd of 798 nM. B2: the dissociation constant (Kd) worked out at 245 nM. The same measure, in the same setting: the result for B3 reads 873 nM; that for B4, 189 nM.

Consider B5, for which binding was characterised by a dissociation constant (Kd) of 115 nM. This Kd lies about 1.6-fold lower than the previous one. Same read-out and setting: the figure for B6 is 154 nM.

For another test, the target named is full-length human CD137 (huCD137) (human, UniProt Q07011 24-255). Briefly: cell-based or functional assay.
Chain of full-length human CD137 (huCD137) (Q07011 24-255 limits assumed): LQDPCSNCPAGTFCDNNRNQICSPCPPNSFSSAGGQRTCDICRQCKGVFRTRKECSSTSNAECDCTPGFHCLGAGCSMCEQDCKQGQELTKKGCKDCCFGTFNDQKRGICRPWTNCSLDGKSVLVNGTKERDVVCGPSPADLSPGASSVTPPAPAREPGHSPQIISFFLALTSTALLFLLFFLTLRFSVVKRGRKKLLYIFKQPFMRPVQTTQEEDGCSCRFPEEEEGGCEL
With B7, the “Functional assay EC50 (ug/ml), in vitro CD137 activation (PBMC cytokine release)” value came out at 0.17 µg/mL. Still for that read-out and setting: the figure for B8 is 0.01 µg/mL.
